Measurements published in the supplement of paper PMC9732359.
± gives the uncertainty stated by the source.

Test: protein stability index of a GFP-peptide fusion (yeast GPS) (PSI 1-4); higher = more stable; sorted into four equal gates, so the index is relative within each strain
How it was run: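 Sequencing reads from sorted gates were used to score each peptide. The library consisted of tiled 17-residue yeast protein peptides fused downstream of GFP on a Cherry-expressing plasmid, pooled and carried in yeast. Mid-log cultures in leucine-free medium were split into four equal gates by GFP/Cherry ratio, and each gate's plasmids were PCR-amplified and Illumina-sequenced. The protein stability index adds up, over all gates, the read frequency multiplied by the gate number.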

Sequence | protein stability index (doa10∆) | protein stability index (pdr5∆) | protein stability index (san1∆) | protein stability index (ubr1∆)
QQQLQQNSKEKNGLGLN [MED2] | 2.5 ± 0.29 | 3.26 ± 0.12 | 2.42 ± 0.26 | 2.96 ± 0.13
QQQPQPQYNMNMGMNNM [PGD1] | 3.02 ± 0.049 | 2.77 ± 0.05 | 3.29 ± 0.041 | 2.89 ± 0.069
QQQQQQQQQTSPPPQTH [SNF5] | 2.765 ± 0.011 | 2.862 ± 0.011 | 2.799 ± 0.01 | 2.824 ± 0.009
QRDRHTLAYDRGHRIRR [PRP8] | 3.01 ± 0.1 | 3.21 ± 0.074 | 2.83 ± 0.095 | 2.87 ± 0.048
QRESQIGAAELNENARE [SNF12] | 3.22 ± 0.075 | 3.19 ± 0.063 | 2.93 ± 0.12 | 3.35 ± 0.044
QRGEDDLTFKLADILKA [RPO21] | 2.34 ± 0.082 | 2.61 ± 0.1 | 2.45 ± 0.066 | 2.1 ± 0.046
QRGKMHGLKQLRDSLAD [NUT2] | 3.04 ± 0.077 | 2.67 ± 0.062 | 1.48 ± 0.071 | 2.1 ± 0.06
QRIIKELSIRFPQYKLT [ARP7] | 1.9 ± 0.058 | 1.67 ± 0.089 | 2.12 ± 0.081 | 1.7 ± 0.047
QRKTNGASNGDDSNGGN [BRN1] | 3.12 ± 0.14 | 2.92 ± 0.23 | 3.71 ± 0.17 | 3.64 ± 0.15
QRMHAIHEIDERLAKVN [NNF1] | 1.44 ± 0.093 | 2.59 ± 0.14 | 2.42 ± 0.085 | 2.14 ± 0.061
QRQLLVQQQQQQQLRNQ [SNF5] | 2.2 ± 0.071 | 2.54 ± 0.11 | 2.44 ± 0.19 | 2.6 ± 0.1
QRVRNMRELGLIQSTEF [YOR098C/NUP1] | 2.78 ± 0.12 | 2.03 ± 0.1 | 2.84 ± 0.26 | 2.22 ± 0.12
QSISGTLELSAQFRVPR [SWP82] | 2.46 ± 0.077 | 2.77 ± 0.069 | 2.52 ± 0.084 | 2.79 ± 0.066
QSNEDTFLPSYMKFSNK [RRI2] | 2.84 ± 0.063 | 3.05 ± 0.063 | 3.17 ± 0.052 | 3.18 ± 0.048
QSRVPTSLTSIKWENAF [PRP8] | 3.21 ± 0.077 | 3.3 ± 0.11 | 3.44 ± 0.072 | 3.18 ± 0.048
QSSEDVITIKSRIRVKI [RPB7] | 2.4 ± 0.11 | 2.41 ± 0.075 | 2.51 ± 0.078 | 3 ± 0.12
QSTPQPDDMVEINSVGN [ITC1] | 3.2 ± 0.11 | 3.42 ± 0.043 | 3.04 ± 0.13 | 3.18 ± 0.075
QTDADRVKDPQWLIMLG [RIP1] | 3.19 ± 0.16 | 3.22 ± 0.11 |  | 2.6 ± 0.12
QTFNFDSFENYFNQLKP [RPN12] | 2.76 ± 0.047 | 2.9 ± 0.064 | 3.05 ± 0.052 | 3 ± 0.046
QTIEMITQIVEKDFCTS [SRB8] | 2.86 ± 0.054 | 3.08 ± 0.058 | 2.93 ± 0.047 | 3.02 ± 0.048
QTIPIQIYGFEGLNQRN [YGR119C/NUP57] | 2.64 ± 0.27 |  | 2.52 ± 0.16 | 3.08 ± 0.18
QTLGLESFTEELSNELS [MED1] | 3.29 ± 0.064 | 3.1 ± 0.051 | 3.06 ± 0.05 | 3 ± 0.037
QTLSSHLEALQPLFSTV [PGD1] | 1.96 ± 0.031 | 1.97 ± 0.037 | 2.2 ± 0.052 | 2.49 ± 0.034
QTRAKLLDNEIRIFRSE [RPT5] | 3.15 ± 0.12 | 3.37 ± 0.093 | 3.22 ± 0.051 | 2.95 ± 0.056
QTVRLIKDLQRAINKVL [SIR2] | 2.13 ± 0.057 | 2.03 ± 0.061 | 1.22 ± 0.11 | 2 ± 0.039
QVENMKWDFAKDIKGYG [PRE4] | 2.03 ± 0.078 | 1.54 ± 0.082 | 1.41 ± 0.16 | 1.68 ± 0.049

Sequence | protein stability index (doa10∆) | protein stability index (pdr5∆) | protein stability index (san1∆) | protein stability index (ubr1∆)
QVILPMSPNHGTFGGDG [FAS2] | 3.12 ± 0.064 | 3.1 ± 0.057 | 3.18 ± 0.061 | 3.07 ± 0.048
QVNIRFLLHNSEIIDTN [SRB8] | 2.17 ± 0.059 | 2.71 ± 0.057 | 2.79 ± 0.055 | 2.7 ± 0.04
QVPLQQTQAIAQQQQLS [YGR119C/NUP57] | 2.14 ± 0.08 | 2.41 ± 0.076 | 2.15 ± 0.077 | 2.29 ± 0.06
QVPQVRSMSGQPPTNVQ [SNF5] | 2.81 ± 0.05 | 3.03 ± 0.042 | 3.06 ± 0.037 | 2.95 ± 0.035
QVRKDLGNVIVPNILSL [NUT1] | 2.23 ± 0.1 | 2.55 ± 0.088 | 2.46 ± 0.093 | 2.62 ± 0.07
QVYDLLKRFPKMSVTCN [BRR2] |  | 1.09 ± 0.13 |  | 
QWLIMLGICTHLGCVPI [RIP1] | 1.69 ± 0.067 | 1.37 ± 0.078 | 1.29 ± 0.14 | 1.46 ± 0.089
QWMVSLFNNHLNGILAD [SNF2] | 1.39 ± 0.12 | 1.46 ± 0.11 | 1.37 ± 0.14 | 1.2 ± 0.059
QWRYLYDTQLKVSPEEL [ARP7] | 1.98 ± 0.042 | 1.97 ± 0.042 | 2.08 ± 0.056 | 1.67 ± 0.049
QYESQAPDGSASISLPN [SWP82] | 2.97 ± 0.055 | 2.61 ± 0.05 | 2.92 ± 0.038 | 2.83 ± 0.029
QYILQIVSFIVNCFHED [YJL039C/NUP192] | 1.42 ± 0.061 | 1.91 ± 0.062 | 2.18 ± 0.077 | 2.3 ± 0.057
QYQLLYNLKNDILTNLE [SWI1] | 1.81 ± 0.033 | 1.89 ± 0.037 | 1.74 ± 0.077 | 1.65 ± 0.031
QYSTRHDAPRGLFPFES [SWI3] | 3.14 ± 0.062 | 3.17 ± 0.073 | 3.2 ± 0.077 | 3.13 ± 0.067
RADIVRNIILEARFDVL [ISW2] | 2.66 ± 0.088 | 2.25 ± 0.071 | 2.09 ± 0.11 | 2.51 ± 0.073
RADVEDESNDIDMIADE [RPC37] | 2.95 ± 0.073 | 2.72 ± 0.057 | 2.8 ± 0.08 | 3.27 ± 0.066
RAGMTHEDEKLIPTIFR [PRP8] | 3.19 ± 0.085 | 3.28 ± 0.076 | 3.15 ± 0.049 | 3.19 ± 0.05
RAIYSYLSGAIPNQEVL [YDL116W/NUP84] | 2.4 ± 0.066 | 2.58 ± 0.079 | 2.5 ± 0.089 | 2.76 ± 0.055
RAKAEAAEFRYKYGYDM [SCL1] | 2.85 ± 0.065 | 2.91 ± 0.063 | 2.71 ± 0.058 | 2.57 ± 0.047
RAKAMKFADGFLIHSGQ [RPS3] | 3.4 ± 0.11 | 3.03 ± 0.093 | 3.13 ± 0.061 | 3.22 ± 0.037
RAKKTRALRRALTKFEA [RPL35A] |  |  |  | 3.11 ± 0.15
RALFRQLKRWYWQFNGV [RMP1] | 2.29 ± 0.18 | 1.24 ± 0.12 | 1.19 ± 0.18 | 1.34 ± 0.11
RALSIFSPDGHIFQVEY [PRE6] | 2.97 ± 0.051 | 2.98 ± 0.05 | 3.04 ± 0.032 | 3.1 ± 0.032
RAPKANGALDPKMGVSS [RPO31] | 3.12 ± 0.23 | 3.11 ± 0.16 | 3.05 ± 0.093 | 3.04 ± 0.08
RAQLENEIEGKNEETPQ [RPC25] |  | 3.23 ± 0.14 | 2.47 ± 0.2 | 3.38 ± 0.078
RASLVPGTVLILLAGRF [RPL6A] | 1.67 ± 0.054 | 1.93 ± 0.084 | 1.78 ± 0.1 | 1.75 ± 0.082
